Measured values published in patent publication US20140087995A1 (published 2014).
Numbered stars: 1 amine (or outer) side, 2 acyl side, 3 side chain; on linkers, the order of the positions; unused ones are H or OH. Bridge positions count the residues as written; N and C are the ends. * marks the point of attachment. C20 diacid = O=C(O)CCCCCCCCCCCCCCCCCCC(=O)*; γGlu = O=C(O)[C@H](CCC(=O)[*:2])N[*:1]

B1: N^α1-[(4S)-4-carboxy-4-(19-carboxynonadecanoylamino)butanoyl]-[Glu14,Arg17,Pro21,Pro26]-h-amylin (peptide)
peptide: {C20 diacid-γGlu}-KCNTATCATQRLAEFLRHSSPNFGAPLSSTNVGSNTY-NH2
modifications: disulfide 2-7
SMILES: CC(C)C[C@H](NC(=O)[C@H](CCCNC(=N)N)NC(=O)[C@H](CCC(N)=O)NC(=O)[C@@H](NC(=O)[C@H](C)NC(=O)[C@@H]1CSSC[C@H](NC(=O)[C@H](CCCCN)NC(=O)CC[C@H](NC(=O)CCCCCCCCCCCCCCCCCCC(=O)O)C(=O)O)C(=O)N[C@@H](CC(N)=O)C(=O)N[C@@H]([C@@H](C)O)C(=O)N[C@@H](C)C(=O)N[C@@H]([C@@H](C)O)C(=O)N1)[C@@H](C)O)C(=O)N[C@@H](C)C(=O)N[C@@H](CCC(=O)O)C(=O)N[C@@H](Cc1ccccc1)C(=O)N[C@@H](CC(C)C)C(=O)N[C@@H](CCCNC(=N)N)C(=O)N[C@@H](Cc1c[nH]cn1)C(=O)N[C@@H](CO)C(=O)N[C@@H](CO)C(=O)N1CCC[C@H]1C(=O)N[C@@H](CC(N)=O)C(=O)N[C@@H](Cc1ccccc1)C(=O)NCC(=O)N[C@@H](C)C(=O)N1CCC[C@H]1C(=O)N[C@@H](CC(C)C)C(=O)N[C@@H](CO)C(=O)N[C@@H](CO)C(=O)N[C@H](C(=O)N[C@@H](CC(N)=O)C(=O)N[C@H](C(=O)NCC(=O)N[C@@H](CO)C(=O)N[C@@H](CC(N)=O)C(=O)N[C@H](C(=O)N[C@@H](Cc1ccc(O)cc1)C(N)=O)[C@@H](C)O)C(C)C)[C@@H](C)O
notes: also called compound 7
B2: N^α1-[(4S)-4-carboxy-4-(19-carboxynonadecanoylamino)butanoyl]-[Glu14,Arg17,Pro21,Pro27,Arg35]-h-amylin (peptide)
peptide: {C20 diacid-γGlu}-KCNTATCATQRLAEFLRHSSPNFGAIPSSTNVGSRTY-NH2
modifications: disulfide 2-7
SMILES: CC[C@H](C)[C@H](NC(=O)[C@H](C)NC(=O)CNC(=O)[C@H](Cc1ccccc1)NC(=O)[C@H](CC(N)=O)NC(=O)[C@@H]1CCCN1C(=O)[C@H](CO)NC(=O)[C@H](CO)NC(=O)[C@H](Cc1c[nH]cn1)NC(=O)[C@H](CCCNC(=N)N)NC(=O)[C@H](CC(C)C)NC(=O)[C@H](Cc1ccccc1)NC(=O)[C@H](CCC(=O)O)NC(=O)[C@H](C)NC(=O)[C@H](CC(C)C)NC(=O)[C@H](CCCNC(=N)N)NC(=O)[C@H](CCC(N)=O)NC(=O)[C@@H](NC(=O)[C@H](C)NC(=O)[C@@H]1CSSC[C@H](NC(=O)[C@H](CCCCN)NC(=O)CC[C@H](NC(=O)CCCCCCCCCCCCCCCCCCC(=O)O)C(=O)O)C(=O)N[C@@H](CC(N)=O)C(=O)N[C@@H]([C@@H](C)O)C(=O)N[C@@H](C)C(=O)N[C@@H]([C@@H](C)O)C(=O)N1)[C@@H](C)O)C(=O)N1CCC[C@H]1C(=O)N[C@@H](CO)C(=O)N[C@@H](CO)C(=O)N[C@H](C(=O)N[C@@H](CC(N)=O)C(=O)N[C@H](C(=O)NCC(=O)N[C@@H](CO)C(=O)N[C@@H](CCCNC(=N)N)C(=O)N[C@H](C(=O)N[C@@H](Cc1ccc(O)cc1)C(N)=O)[C@@H](C)O)C(C)C)[C@@H](C)O
notes: also called compound 16
B3: N^α1-[(4S)-4-carboxy-4-(19-carboxynonadecanoylamino)butanoyl]-[Glu14,Arg17,Pro21,Pro27,His35]-h-amylin (peptide)
peptide: {C20 diacid-γGlu}-KCNTATCATQRLAEFLRHSSPNFGAIPSSTNVGSHTY-NH2
modifications: disulfide 2-7
SMILES: CC[C@H](C)[C@H](NC(=O)[C@H](C)NC(=O)CNC(=O)[C@H](Cc1ccccc1)NC(=O)[C@H](CC(N)=O)NC(=O)[C@@H]1CCCN1C(=O)[C@H](CO)NC(=O)[C@H](CO)NC(=O)[C@H](Cc1c[nH]cn1)NC(=O)[C@H](CCCNC(=N)N)NC(=O)[C@H](CC(C)C)NC(=O)[C@H](Cc1ccccc1)NC(=O)[C@H](CCC(=O)O)NC(=O)[C@H](C)NC(=O)[C@H](CC(C)C)NC(=O)[C@H](CCCNC(=N)N)NC(=O)[C@H](CCC(N)=O)NC(=O)[C@@H](NC(=O)[C@H](C)NC(=O)[C@@H]1CSSC[C@H](NC(=O)[C@H](CCCCN)NC(=O)CC[C@H](NC(=O)CCCCCCCCCCCCCCCCCCC(=O)O)C(=O)O)C(=O)N[C@@H](CC(N)=O)C(=O)N[C@@H]([C@@H](C)O)C(=O)N[C@@H](C)C(=O)N[C@@H]([C@@H](C)O)C(=O)N1)[C@@H](C)O)C(=O)N1CCC[C@H]1C(=O)N[C@@H](CO)C(=O)N[C@@H](CO)C(=O)N[C@H](C(=O)N[C@@H](CC(N)=O)C(=O)N[C@H](C(=O)NCC(=O)N[C@@H](CO)C(=O)N[C@@H](Cc1c[nH]cn1)C(=O)N[C@H](C(=O)N[C@@H](Cc1ccc(O)cc1)C(N)=O)[C@@H](C)O)C(C)C)[C@@H](C)O
notes: also called compound 18
B4: N^α1-[(4S)-4-carboxy-4-(19-carboxynonadecanoylamino)butanoyl]-[Glu14,Arg17,Pro21,Pro27,His34]-h-amylin (peptide)
peptide: {C20 diacid-γGlu}-KCNTATCATQRLAEFLRHSSPNFGAIPSSTNVGHNTY-NH2
modifications: disulfide 2-7
SMILES: CC[C@H](C)[C@H](NC(=O)[C@H](C)NC(=O)CNC(=O)[C@H](Cc1ccccc1)NC(=O)[C@H](CC(N)=O)NC(=O)[C@@H]1CCCN1C(=O)[C@H](CO)NC(=O)[C@H](CO)NC(=O)[C@H](Cc1c[nH]cn1)NC(=O)[C@H](CCCNC(=N)N)NC(=O)[C@H](CC(C)C)NC(=O)[C@H](Cc1ccccc1)NC(=O)[C@H](CCC(=O)O)NC(=O)[C@H](C)NC(=O)[C@H](CC(C)C)NC(=O)[C@H](CCCNC(=N)N)NC(=O)[C@H](CCC(N)=O)NC(=O)[C@@H](NC(=O)[C@H](C)NC(=O)[C@@H]1CSSC[C@H](NC(=O)[C@H](CCCCN)NC(=O)CC[C@H](NC(=O)CCCCCCCCCCCCCCCCCCC(=O)O)C(=O)O)C(=O)N[C@@H](CC(N)=O)C(=O)N[C@@H]([C@@H](C)O)C(=O)N[C@@H](C)C(=O)N[C@@H]([C@@H](C)O)C(=O)N1)[C@@H](C)O)C(=O)N1CCC[C@H]1C(=O)N[C@@H](CO)C(=O)N[C@@H](CO)C(=O)N[C@H](C(=O)N[C@@H](CC(N)=O)C(=O)N[C@H](C(=O)NCC(=O)N[C@@H](Cc1c[nH]cn1)C(=O)N[C@@H](CC(N)=O)C(=O)N[C@H](C(=O)N[C@@H](Cc1ccc(O)cc1)C(N)=O)[C@@H](C)O)C(C)C)[C@@H](C)O
notes: also called compound 17
B5: N^α1-[(4S)-4-carboxy-4-(19-carboxynonadecanoylamino)butanoyl]-[Glu14,Arg17,Pro21,Pro27,Asp35,Pro37]-h-amylin (peptide)
peptide: {C20 diacid-γGlu}-KCNTATCATQRLAEFLRHSSPNFGAIPSSTNVGSDTP-NH2
modifications: disulfide 2-7
SMILES: CC[C@H](C)[C@H](NC(=O)[C@H](C)NC(=O)CNC(=O)[C@H](Cc1ccccc1)NC(=O)[C@H](CC(N)=O)NC(=O)[C@@H]1CCCN1C(=O)[C@H](CO)NC(=O)[C@H](CO)NC(=O)[C@H](Cc1c[nH]cn1)NC(=O)[C@H](CCCNC(=N)N)NC(=O)[C@H](CC(C)C)NC(=O)[C@H](Cc1ccccc1)NC(=O)[C@H](CCC(=O)O)NC(=O)[C@H](C)NC(=O)[C@H](CC(C)C)NC(=O)[C@H](CCCNC(=N)N)NC(=O)[C@H](CCC(N)=O)NC(=O)[C@@H](NC(=O)[C@H](C)NC(=O)[C@@H]1CSSC[C@H](NC(=O)[C@H](CCCCN)NC(=O)CC[C@H](NC(=O)CCCCCCCCCCCCCCCCCCC(=O)O)C(=O)O)C(=O)N[C@@H](CC(N)=O)C(=O)N[C@@H]([C@@H](C)O)C(=O)N[C@@H](C)C(=O)N[C@@H]([C@@H](C)O)C(=O)N1)[C@@H](C)O)C(=O)N1CCC[C@H]1C(=O)N[C@@H](CO)C(=O)N[C@@H](CO)C(=O)N[C@H](C(=O)N[C@@H](CC(N)=O)C(=O)N[C@H](C(=O)NCC(=O)N[C@@H](CO)C(=O)N[C@@H](CC(=O)O)C(=O)N[C@H](C(=O)N1CCC[C@H]1C(N)=O)[C@@H](C)O)C(C)C)[C@@H](C)O
notes: also called compound 11

molecular target: T1, human amylin 3(a) receptor (human calcitonin receptor plus RAMP-3) (human, UniProt P30988 25-474; O60896 24-148, limits assumed); test: cell-based or functional assay
T1 sequence (looked up) 1: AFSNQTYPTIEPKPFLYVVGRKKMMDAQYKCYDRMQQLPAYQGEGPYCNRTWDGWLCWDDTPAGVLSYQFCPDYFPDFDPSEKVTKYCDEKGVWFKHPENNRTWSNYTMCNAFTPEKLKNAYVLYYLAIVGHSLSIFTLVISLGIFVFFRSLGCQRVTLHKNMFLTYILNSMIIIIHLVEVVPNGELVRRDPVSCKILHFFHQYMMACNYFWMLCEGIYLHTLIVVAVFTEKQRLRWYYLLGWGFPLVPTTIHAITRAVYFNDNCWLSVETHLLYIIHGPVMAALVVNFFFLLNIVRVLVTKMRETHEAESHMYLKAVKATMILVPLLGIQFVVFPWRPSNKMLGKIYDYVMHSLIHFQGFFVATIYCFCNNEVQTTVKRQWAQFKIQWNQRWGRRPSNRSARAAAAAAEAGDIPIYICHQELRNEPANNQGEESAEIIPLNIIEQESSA
T1 sequence (looked up) 2: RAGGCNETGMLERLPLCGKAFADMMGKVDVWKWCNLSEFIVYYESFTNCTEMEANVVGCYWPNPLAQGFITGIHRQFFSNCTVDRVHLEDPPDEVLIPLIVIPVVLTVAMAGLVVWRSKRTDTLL

Going from B1 to B2, the “Ratio hCT/hAmylin funct.” value rises from 4.5 to 6.1.

Compared with B3, B4 is higher in “Ratio hCT/hAmylin funct.” value: 4.8 for the first, 8.8 for the second.

For B5, the “Ratio hCT/hAmylin funct.” value was 0.9.

B1 and B2 are within 1.5-fold of each other in “hAmylin-R funct. EC50” value: 0.255 nM for the first, 0.363 nM for the second.

Going from B3 to B4, the “hAmylin-R funct. EC50” value rises from 0.154 nM to 0.268 nM (1.7-fold).

In the case of B5, the “hAmylin-R funct. EC50” value is reported as 0.12 nM.

molecular target: T2, human calcitonin receptor (human, UniProt P30988 25-474); test: cell-based or functional assay
T2 sequence (looked up): T1 sequence (looked up) 1

First: B1
Second: B2
The “hCTR funct. EC50” value of the first is 1.9-fold lower: 1.16 nM for the first, 2.21 nM for the second.

First: B3
Second: B4
The “hCTR funct. EC50” value of the first is 3.2-fold lower: 0.742 nM for the first, 2.35 nM for the second.

In the case of B5, the “hCTR funct. EC50” value is reported as 0.112 nM.

molecular target: T1, human amylin 3(a) receptor (human …); test: SPA competition binding, displacement of 125I-rat amylin from membranes of Amylin 3(a)/CRE-luc BHK cells (Assay V)
Protocol: The binding assay was performed using scintillation proximity assay (SPA) beads (RPNQ0001) from PerkinElmer and cell membranes from the Amylin 3(a)/CRE-luc cells (as described in Assay (II)) were used. Membranes were prepared in the following way; the cells were rinsed with PBS and incubated with Versene for approximately 5 min before harvesting. The cells were flushed with PBS and the cell-suspension was centrifuged for 5 min at 1000 rpm. Cells were homogenized (ultrathurrax) in a buffer containing 20 mM Na-HEPES and 10 mM EDTA (pH 7.4) and centrifuged at 20.000 rpm for 15 min. The resulting pellet was resuspended, homogenized and centrifuged (20.000 rpm, 15 min) in a buffer containing 20 mM Na-HEPES and 0.1 mM EDTA (pH 7.4, buffer 2). The resulting pellet was resuspended in buffer 2 and protein concentration was measured (BCA protein Assay, Pierce). The homogenate was kept cold during the whole procedure. The membranes were kept at −80° C. until use. The assay was performed in a 384 well Optiplate (PerkinElmer) in a total volume of 40 ul. Membranes were mixed with SPA beads. Final concentration of membranes 35 ng/μL final and SPA beads was 0.05 mg/well. Test-compounds were dissolved in DMSO and further diluted in assay buffer (50 mM Hepes, pH 7.4, 1 mM CaCl2, 5 mM MgCl₂, 0.1% OA and 0.02% Tween20). […] The final mixture was incubated with shaking at 400 rpm for 120 min at 25° C. prior to centrifugation (1500 rpm, 10 min). Samples were analyzed on TopCounter™ (Packard). The IC₅₀ was calculated using (one site binding competition analysis) GraphPad Prism5 as a measure of receptor affinity.

B1 and B2 are within 1.5-fold of each other in IC50: 0.674 nM for the first, 0.894 nM for the second.

Compared with B3, B4 is 1.6-fold higher in IC50: 0.554 nM for the first, 0.878 nM for the second.

Binder B5 has an IC50 of 0.105 nM.
